Target: maltose binding protein (MBP)-tagged ubiquitin
Assay: ELISA

Row | binding in ELISA relative to S4WIYLD (set to 1) (relative to S4WIYLD = 1) | reduction of binding relative to wild-type S4WIYLD | Substance
1 | 0.65 | – | GST-tagged SUVR1 WIYLD domain (domain or fragment)
2 | – | 37% | GST-tagged SUVR4 WIYLD domain A32E (domain or fragment)
3 | 1.23 | – | GST-tagged SUVR2 WIYLD domain (domain or fragment)
